We go through eight molecules from publication PMC2632905.

Like-named read-outs stand apart in the source and are kept apart here.

In general, Kd refers to the free concentration of one partner at which half of the binding sites on the other are occupied at equilibrium, for simple one-to-one binding. Lower therefore signals a tighter complex.

In data set [1] the target is T1, Cdc13p full-length (Saccharomyces cerevisiae, UniProt P32797 1-924).
T1 sequence: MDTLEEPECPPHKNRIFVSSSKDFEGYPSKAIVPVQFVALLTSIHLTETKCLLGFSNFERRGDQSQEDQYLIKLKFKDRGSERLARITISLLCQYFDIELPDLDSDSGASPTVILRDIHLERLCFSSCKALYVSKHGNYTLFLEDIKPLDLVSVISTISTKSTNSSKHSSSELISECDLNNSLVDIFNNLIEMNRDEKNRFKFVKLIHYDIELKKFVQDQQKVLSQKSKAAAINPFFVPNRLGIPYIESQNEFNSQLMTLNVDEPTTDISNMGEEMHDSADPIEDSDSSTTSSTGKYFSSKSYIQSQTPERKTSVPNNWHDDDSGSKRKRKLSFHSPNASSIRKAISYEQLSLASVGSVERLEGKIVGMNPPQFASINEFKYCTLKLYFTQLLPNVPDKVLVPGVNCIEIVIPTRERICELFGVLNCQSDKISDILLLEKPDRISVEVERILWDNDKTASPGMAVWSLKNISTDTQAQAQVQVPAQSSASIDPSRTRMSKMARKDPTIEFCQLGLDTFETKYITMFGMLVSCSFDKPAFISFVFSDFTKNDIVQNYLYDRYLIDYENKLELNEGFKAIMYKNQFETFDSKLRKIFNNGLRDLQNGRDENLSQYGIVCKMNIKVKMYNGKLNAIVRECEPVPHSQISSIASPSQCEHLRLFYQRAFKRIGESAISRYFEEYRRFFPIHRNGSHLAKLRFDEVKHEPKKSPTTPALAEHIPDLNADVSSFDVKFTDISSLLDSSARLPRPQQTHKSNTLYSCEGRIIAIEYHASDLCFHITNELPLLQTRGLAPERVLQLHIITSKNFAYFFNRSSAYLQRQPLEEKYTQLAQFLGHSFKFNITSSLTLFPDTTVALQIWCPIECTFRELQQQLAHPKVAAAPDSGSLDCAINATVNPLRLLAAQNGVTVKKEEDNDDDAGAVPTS
Kind of data set: EMSA. For orientation: In EMSA bound probe runs differently from free probe, usually more slowly.

Data set [2] addresses T2, Cdc13(DBD) (Saccharomyces cerevisiae, UniProt P32797 497-694).
T2 sequence: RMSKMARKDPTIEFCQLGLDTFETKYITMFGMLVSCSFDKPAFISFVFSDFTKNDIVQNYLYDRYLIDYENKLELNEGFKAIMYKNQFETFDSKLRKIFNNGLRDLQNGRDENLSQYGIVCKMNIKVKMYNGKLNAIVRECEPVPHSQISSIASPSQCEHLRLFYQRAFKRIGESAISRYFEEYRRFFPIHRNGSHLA
Nature of the data set: filter binding.

Data set [3] addresses T2, Cdc13(DBD). Kind of data set: footprinting.
Data set [4] deals with T1, Cdc13p full-length. Kind of data set: footprinting.
Data set [5] concerns the target T1, Cdc13p full-length. Kind of data set: footprinting. The source holds these as a separate data set.
Data set [6] addresses T2, Cdc13(DBD). Nature of the data set: footprinting. This is another data set of the same source.

On to GTGTCTGTCTG (ssDNA) [TEL*], for which the values for the Kd with Cdc13p full-length [1] and with Cdc13(DBD) [2] were 11 ± 3.8 nM and 620 ± 120 nM, respectively.
Molecule GTGTCTGTCTGGG (ssDNA) [TEL*-GG] had a Kd with Cdc13p full-length [1] of 0.81 ± 0.03 nM.
For the molecule GTGTCTGTCTGGTGTGGG (ssDNA) [TEL*-GTGTGGG], the Kd with Cdc13p full-length [1] was found to be 0.81 ± 0.15 nM.
For the molecule GTGTCTGTCTGTGTGGG (ssDNA) [TEL*-TGTGGG], the binding result with Cdc13(DBD) [3] and in the data set with Cdc13p full-length [4] was “binds” throughout.
For GTGTCTGTCTGGTGGG (ssDNA) [TEL*-GTGGG], the binding result with Cdc13p full-length [5] and with Cdc13(DBD) [6] was “binds” throughout.
With GTGTCTGTCTGGGG (ssDNA) [TEL*-GGG], the Kd with Cdc13p full-length [1] was found to be 2.2 ± 0.7 nM; in the data set with Cdc13(DBD) [2], 33 ± 5.7 nM.
On to GTGTGGGTGTG (ssDNA) [TEL], for which the Kd turned out to be 0.43 ± 0.17 nM with Cdc13p full-length [1] and 2.8 ± 0.6 nM with Cdc13(DBD) [2].
On the same counts, the results for GTGTCTGTCTGAAAAAAAAAA (ssDNA) [TEL*-a10] are 7.4 ± 2.4 nM and 380 ± 57 nM.
